Measured values: patent US20250154283A1 (published 2025)
Residue numbers refer to the chain shown, from its start.

T1: biotinylated human VWF cysteine knot (CK) domain construct (human, biotin on the in vitro biotinylation tag (residue not stated); one N-glycan)
T1 construct: Disulfide-linked homodimer; also called biotinylated human VWF CK domain; human VWF CK domain construct
T1 chain: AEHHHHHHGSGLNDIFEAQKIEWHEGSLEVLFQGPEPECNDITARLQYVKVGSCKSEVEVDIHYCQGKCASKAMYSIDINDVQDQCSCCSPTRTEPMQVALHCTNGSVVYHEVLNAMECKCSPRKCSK

B1: Lib1_P1_A1_scFv (scFv, not shown: small tags and cut ends)
scFv: QVQLVQSGAEVKKPGASVKVSCKVSGDTLSNYAIHWVRQAPGKGLEWMGGINPNAGTTIYAQKFQGRVTMTEDTSTDTAYMELSSLKSEDTAVYYCARDSSSWSQFGYYYYYMDVWGKGTTVTVSSSGGSTITSYNVYYTKLSSSGTDIQMTQSPSSVSASVGDRVTITCRASQSIGDFLAWYQQKPGKAPKLLIYDASHLQTGVPSRFSGSGSGTDFTLTISSLQPEDFANYYCQQTSTIPPTFGGGTKVEIK
B2: 487_Lib1_scFv (scFv, not shown: small tags and cut ends)
scFv: QVQLVQSGAEVKKPGASVKVSCKVSGYTFTSHIIHWVRQAPGKGLEWMGGMNPYSNKAIYAQKFQGRVTMTEDTSTDTAYMELSSLKSEDTAVYYCARDASDYGDYGYYYYYMDVWGKGTTVTVSSSGGSTITSYNVYYTKLSSSGTDIQMTQSPSSVSASVGDRVTITCRASQSIGDFLAWYQQKPGKAPKLLIYDASHLQTGVPSRFSGSGSGTDFTLTISSLQPEDFANYYCQQTSTIPPTFGGGTKVEIK
B3: Lib4_P2_A1_scFv (scFv, not shown: small tags and cut ends)
scFv: QVQLQESGPGLVKPSQTLSLTCTVSGASFGDNYWSWIRQPPGKGLEWIGYIDTSGSSDYNPSLKSRVTMSVDTSKNQFSLKVNSVTAADTAVYYCARVSWGYYAMDVWGQGTTVTVSSSGGSTITSYNVYYTKLSSSGTEIVMTQSPATLSLSPGERATLSCRASQGISGRLAWYQQKPGQAPRLLIYDVSTRATGIPARFSGSGSGTDFTLTISSLEPEDFAVYYCQQYDTSAPLTFGGGTKVEIK
B4: Lib4_P2_A5_scFv (scFv, not shown: small tags and cut ends)
scFv: QVQLQESGPGLVKPSQTLSLTCTVSGSSISSSSDYWSWIRQPPGKGLEWIGYIDISGDADYNPSLKSRVTMSVDTSKNQFSLKVNSVTAADTAVYYCARHLSSGWYGTYYFDYWGQGTLVTVSSSGGSTITSYNVYYTKLSSSGTEIVMTQSPATLSLSPGERATLSCRASQNIHSNLAWYQQKPGQAPRLLIYDASSRATGIPARFSGSGSGTDFTLTISSLEPEDFAVYYCQQGYTKPLTFGGGTKVEIK
B5: 189_Lib4_scFv (scFv, not shown: small tags and cut ends)
scFv: QVQLQESGPGLVKPSQTLSLTCTVSGVTFSSYGWSWIRQPPGKGLEWIGYVDTSGSTDYNPSLKSRVTMSVDTSKNQFSLKVNSVTAADTAVYYCARTTYYYDSSGFARGWFDPWGQGTLVTVSSSGGSTITSYNVYYTKLSSSGTEIVMTQSPATLSLSPGERATLSCRASQSVPSSHLAWYQQKPGQAPRLLIYDATNRAAGIPARFSGSGSGTDFTLTISSLEPEDFAVYYCQQYDNWPSPSFGGGTKVEIK
B6: Lib6_P3_B9_scFv (scFv, not shown: small tags and cut ends)
scFv: EVQLVQSGAEVKKPGASVKVSCKASGDTFSSHVISWVRQAPGQGLEWMGGINPRTGTTIYAQKLQGRGTMTTDPSTSTAYMELRSLRSDDTAVYYCARTRPWAGLDVWGQGTTVTVSSSGGSTITSYNVYYTKLSSSGTESALTQPASVSGSPGQSITISCTGTNIEYKGVSWYQQHPGKAPKLMIYGVDKRPSGVSNRFSGSKSGNTASLTISGLQAEDEADYYCQAWGTSTAIFGGGTKLTVL
B7: 2738_Lib1_scFv (scFv, not shown: small tags and cut ends)
scFv: QVQLVQSGAEVKKPGASVKVSCKVSGYTLTDLPIHWVRQAPGKGLEWMGGINPFLGTTIYAQKFQGRVTMTEDTSTDTAYMELSSLKSEDTAVYYCARGVDMLATARDYYYMAIWGKGTTVTVSSSGGSTITSYNVYYTKLSSSGTDIQMTQSPSSVSASVGDRVTITCRASQSIGNDLAWYQQKPGKAPKLLIYGASMRATGVPSRFSGSGSGTDFTLTISSLQPEDFANYYCQQYASDPLTFGGGTKVEIK
B8: Lib4_P2_A3_scFv (scFv, not shown: small tags and cut ends)
scFv: QVQLQESGPGLVKPSQTLSLTCTVSGVSLSTSDYSWSWIRQPPGKGLEWIGYISPPGRSDYNPSLKSRVTMSVDTSKNQFSLKVNSVTAADTAVYYCARHSSSGWYSTYDFDSWGQGTMVTVSSSGGSTITSYNVYYTKLSSSGTEIVMTQSPATLSLSPGERATLSCRASQNIHSNLAWYQQKPGQAPRLLIYGATTRATGIPARFSGSGSGTDFTLTISSLEPEDFAVYYCQQSYTTPLTFGGGTKVEIK
B9: Lib1_P1_C6_scFv (scFv, not shown: small tags and cut ends)
scFv: QVQLVQSGAEVKKPGASVKVSCKVSGYTFASHYIHWVRQAPGKGLEWMGGMDPATGQTIYAQKFQGRVTMTEDTSTDTAYMELSSLKSEDTAVYYCAKGDRSSWYEVLSFQHWGQGTLVTVSSSGGSTITSYNVYYTKLSSSGTDIQMTQSPSSVSASVGDRVTITCRASQGISTDLAWYQQKPGKAPKLLIYDASILQRGVPSRFSGSGSGTDFTLTISSLQPEDFANYYCQQVRTYPFTFGGGTKVEIK
B10: Lib1_P1_E9_scFv (scFv, not shown: small tags and cut ends)
scFv: QVQLVQSGAEVKKPGASVKVSCKVSGYTFTSHIIHWVRQAPGKGLEWMGGMNPYSNKAIYAQKFQGRVTMTEDTSTDTAYMELSSLKSEDTAVYYCARDASDYGDYGYYYYYMDVWGKGTTVTVSSSGGSTITSYNVYYTKLSSSGTDIQMTQSPSSVSASVGDRVTITCRASQYIGNDLAWYQQKPGKAPKLLIYEASQRPSGVPSRFSGSGSGTDFTLTISSLQPEDFANYYCQQQYNYPLTFGGGTKVEIK
B11: Lib1_P1_D1_scFv (scFv, not shown: small tags and cut ends)
scFv: QVQLVQSGAEVKKPGASVKVSCKVSGDTFTDRYIHWVRQAPGKGLEWMGGINTIFGTAIYAQKFQGRVTMTEDTSTDTAYMELSSLKSEDTAVYYCAREGATVSTNFDYWGQGTLVTVSSSGGSTITSYNVYYTKLSSSGTDIQMTQSPSSVSASVGDRVTITCRASQDIRKSLAWYQQKPGKAPKLLIYDISNRPSGVPSRFSGSGSGTDFTLTISSLQPEDFANYYCQQGYSAPYGFGGGTKVEIK
B12: 4166_Lib4_scFv (scFv, not shown: small tags and cut ends)
scFv: QVQLQESGPGLVKPSQTLSLTCTVSGESFSGHFWSWIRQPPGKGLEWIGYISQSGRTDYNPSLKSRVTMSVDTSKNQFSLKVNSVTAADTAVYYCARTLPRIQLWSPRGAFDIWGQGTMVTVSSSGGSTITSYNVYYTKLSSSGTEIVMTQSPATLSLSPGERATLSCRASQSLGRSLAWYQQKPGQAPRLLIYDASHRATGIPARFSGSGSGTDFTLTISSLEPEDFAVYYCQQYVSYPLTFGGGTKVEIK
B13: 4142_Lib1_scFv (scFv, not shown: small tags and cut ends)
scFv: QVQLVQSGAEVKKPGASVKVSCKVSGYPFTSSGIHWVRQAPGKGLEWMGGVIPLFGTANYAQKFQGRVTMTEDTSTDTAYMELSSLKSEDTAVYYCARIRVSSGWYRDYGMDVWGQGTTVTVSSSGGSTITSYNVYYTKLSSSGTDIQMTQSPSSVSASVGDRVTITCRASQDITNDLAWYQQKPGKAPKLLIYDASRLQSGVPSRFSGSGSGTDFTLTISSLQPEDFANYYCQQTFTTPLTFGGGTKVEIK
B14: 4029_Lib1_scFv (scFv, not shown: small tags and cut ends)
scFv: B13 scFv with D173S, T175G, N176D, D177F, R198H, S201T, F237S, T239I, L241P
B15: 3552_Lib8_scFv (scFv, not shown: small tags and cut ends)
scFv: EVQLVESGGGLVQPGRSLRLSCAASEFTFGDYDMHWVRQAPGKGLEWVSAISSSGSNRDYADSVEGRFTISRDNAKNSLYLQMNSLRAEDTAVYYCARDAWFGDAFDIWGQGTMVTVSSSGGSTITSYNVYYTKLSSSGTDIQMTQSPSSLSASVGDRVTITCRASESVSSWLAWYQQKPGKAPKLLIYGASTLEGGVPSRFSGSGSGTDFTLTISSLQPEDVATYYCQQSYSFPDFGGGTKVEIK
B16: 4035_Lib1_scFv (scFv, not shown: small tags and cut ends)
scFv: QVQLVQSGAEVKKPGASVKVSCKVSGYAFPSYGIHWVRQAPGKGLEWMGGISAFTGDTIYAQKFQGRVTMTEDTSTDTAYMELSSLKSEDTAVYYCASGPTNVLTGLMESAEYFQHWGQGTLVTVSSSGGSTITSYNVYYTKLSSSGTDIQMTQSPSSVSASVGDRVTITCRASQGISRDLAWYQQKPGKAPKLLIYGASGRATGVPSRFSGSGSGTDFTLTISSLQPEDFANYYCQQSYITPTTFGGGTKVEIK
B17: 96_Lib4_scFv (scFv, not shown: small tags and cut ends)
scFv: QVQLQESGPGLVKPSQTLSLTCTVSGESFSTSYWSWIRQPPGKGLEWIGYITHSGYTDYNPSLKSRVTMSVDTSKNQFSLKVNSVTAADTAVYYCARGGRFPFWYFDLWGRGSLVTVSSSGGSTITSYNVYYTKLSSSGTEIVMTQSPATLSLSPGERATLSCRASRSIGSNLAWYQQKPGQAPRLLIYGATTRATGIPARFSGSGSGTDFTLTISSLEPEDFAVYYCQQYKNDATFGGGTKVEIK
B18: 3964_Lib4_scFv (scFv, not shown: small tags and cut ends)
scFv: QVQLQESGPGLVKPSQTLSLTCTVSGASISTHSWSWIRQPPGKGLEWIGYINPSGDIDYNPSLKSRVTMSVDTSKNQFSLKVNSVTAADTAVYYCARGRTGFDSSGFVVGAFDIWGQGTMVTVSSSGGSTITSYNVYYTKLSSSGTEIVMTQSPATLSLSPGERATLSCRASQNVNDNLAWYQQKPGQAPRLLIYDASTRPTGIPARFSGSGSGTDFTLTISSLEPEDFAVYYCQQYLTIPRTFGGGTKVEIK
B19: Lib4_P2_B4_scFv (scFv, not shown: small tags and cut ends)
scFv: QVQLQESGPGLVKPSQTLSLTCTVSGASLGDQYWSWIRQPPGKGLEWIGYIHPSGDFDYNPSLKSRVTMSVDTSKNQFSLKVNSVTAADTAVYYCARHYSSSWYGTWYFDLWGRGTLVTVSSSGGSTITSYNVYYTKLSSSGTEIVMTQSPATLSLSPGERATLSCRASQNIGTNLAWYQQKPGQAPRLLIYDASVRAAGIPARFSGSGSGTDFTLTISSLEPEDFAVYYCQQSLTTPLTFGGGTKVEIK
B20: 256_Lib8_scFv (scFv, not shown: small tags and cut ends)
scFv: EVQLVESGGGLVQPGRSLRLSCAASGFTVSSNAMHWVRQAPGKGLEWVSAIGTFADTDYADSVEGRFTISRDNAKNSLYLQMNSLRAEDTAVYYCAREGAAAGTNFDYWGQGTLVTVSSSGGSTITSYNVYYTKLSSSGTDIQMTQSPSSLSASVGDRVTITCRASQGIRSYLAWYQQKPGKAPKLLIYGASTLEGGVPSRFSGSGSGTDFTLTISSLQPEDVATYYCQQSYSTPPKFGGGTKVEIK

Target: T1, biotinylated human VWF cysteine knot …
Experiment: SPR, scFv captured on anti-SV5, pH 7.4
Excerpt: Briefly, a sensor chip was activated and coupled with an anti-SV5 mouse monoclonal antibody using amine coupling. The soluble scFvs in crude yeast supernatants were printed on the anti-SV5 lawn. […] From the measured association (kₒₙ) and dissociation (koff) rate constants, an apparent equilibrium dissociation constant (Kd=koff/kₒₙ) was estimated. Due to the dimeric state of the CK construct and consequent possibility for simultaneous binding of captured scFv to both monomers in the CK dimer, the SPR setup was expected to overestimate the binding affinity.

Row | binding result | Binder
1 | binds | B1
2 | binds | B2
3 | binds | B3
4 | binds | B4
5 | binds | B5
6 | binds | B6
7 | binds | B7
8 | binds | B8
9 | binds | B9
10 | binds | B10
11 | binds | B11
12 | binds | B12
13 | binds | B13
14 | binds | B14
15 | binds | B15
16 | binds | B16
17 | binds | B17
18 | binds | B18
19 | binds | B19
20 | binds | B20
